Measurements as given in article PMC8041999 (2021).

B1: FLAG-tagged KIR2DL3, full-length, wild type, on 293T cells [human] / HLA-C*03:04-GL9 tetramer (phycoerythrin-conjugated) [modified: biotin (enzymatically, with biotin ligase)] [human] (parent complex)
chain 1: HEGVHRKPSLLAHPGPLVKSEETVILQCWSDVRFQHFLLHREGKFKDTLHLIGEHHDGVSKANFSIGPMMQDLAGTYRCYGSVTHSPYQLSAPSDPLDIVITGLYEKPSLSAQPGPTVLAGESVTLSCSSRSSYDMYHLSREGEAHERRFSAGPKVNGTFQADFPLGPATHGGTYRCFGSFRDSPYEWSNSSDPLLVSVTGNPSNSWPSPTEPSSETGNPRHLHVLIGTSVVIILFILLLFFLLHRWCCNKKNAVVMDQEPAGNRTVNREDSDEQDPQEVTYAQLNHCVFTQRKITRPSQRPKTPPTDIIVYTELPNAEP
chain 2: not shown
chain 3: not shown
chain 4: GAVDPLLAL
B2: FLAG-tagged KIR2DL3, full-length, wild type, on 293T cells [human] / HLA-C*07:02-RL9 tetramer (phycoerythrin-conjugated) [modified: biotin (enzymatically, with biotin ligase)] [human | not stated] (parent complex)
chain 1: B1 chain 1
chain 2: not shown
chain 3: not shown
chain 4: RYRPGTVAL
B3: FLAG-tagged KIR2DL2, full-length, wild type, on 293T cells [human] / HLA-C*07:02-RL9 tetramer (phycoerythrin-conjugated) [modified: biotin (enzymatically, with biotin ligase)] [human | not stated] (parent complex)
chain 1: HEGVHRKPSLLAHPGRLVKSEETVILQCWSDVRFEHFLLHREGKFKDTLHLIGEHHDGVSKANFSIGPMMQDLAGTYRCYGSVTHSPYQLSAPSDPLDIVITGLYEKPSLSAQPGPTVLAGESVTLSCSSRSSYDMYHLSREGEAHECRFSAGPKVNGTFQADFPLGPATHGGTYRCFGSFRDSPYEWSNSSDPLLVSVIGNPSNSWPSPTEPSSKTGNPRHLHILIGTSVVIILFILLFFLLHRWCSNKKNAAVMDQESAGNRTANSEDSDEQDPQEVTYTQLNHCVFTQRKITRPSQRPKTPPTDIIVYAELPNAESRSKVVSCP
chain 2: not shown
chain 3: not shown
chain 4: RYRPGTVAL
B4: FLAG-tagged KIR2DL2, full-length, wild type, on 293T cells [human] / HLA-C*03:04-GL9 tetramer (phycoerythrin-conjugated) [modified: biotin (enzymatically, with biotin ligase)] [human] (parent complex)
chain 1: B3 chain 1
chain 2: not shown
chain 3: not shown
chain 4: GAVDPLLAL

Variants of: B1
Test: flow cytometry, HLA tetramer staining of transfected 293T cells; percentage tetramer+ normalised to percentage FLAG+; read off a plot

First: chain 1 S133A
Second: chain 1 Y105A
The ratio to parent of the first is higher: roughly 0.57 for the first, roughly 0.02 for the second.

Compared with chain 1 E21A, chain 1 S132A is higher in ratio to parent: roughly 0.92 for the first, roughly 1.2 for the second.

Compared with chain 1 D135A, chain 1 F45A is lower in ratio to parent: roughly 0.1 for the first, roughly 0.04 for the second.

Going from chain 1 E106A to chain 1 D72A, the ratio to parent rises from roughly 0.82 to roughly 1.

Going from chain 1 M70A to chain 1 L104A, the ratio to parent falls from roughly 1.1 to roughly 0.05.

Compared with chain 1 K44A, chain 1 D183A is lower in ratio to parent: roughly 0.6 for the first, roughly 0.05 for the second.

Variants of: B2
Test: as above

First: chain 1 D72A
Second: chain 1 F45A
The ratio to parent of the first is higher: roughly 1.1 for the first, roughly 0.72 for the second.

First: chain 1 E106A
Second: chain 1 K44A
The ratio to parent of the first is lower: roughly 0.85 for the first, roughly 0.9 for the second.

Compared with chain 1 D135A, chain 1 D183A is lower in ratio to parent: roughly 0.57 for the first, roughly 0.33 for the second.

Going from chain 1 L104A to chain 1 Y105A, the ratio to parent falls from roughly 0.4 to roughly 0.02.

Compared with chain 1 S133A, chain 1 M70A is higher in ratio to parent: roughly 1.2 for the first, roughly 1.3 for the second.

Going from chain 1 S132A to chain 1 E21A, the ratio to parent falls from roughly 1.1 to roughly 0.97.

Variants of: B3
Test: as above

First: chain 1 D135A
Second: chain 1 Y105A
The ratio to parent of the first is higher: roughly 1.2 for the first, roughly 0.01 for the second.

Going from chain 1 D72A to chain 1 K44A, the ratio to parent falls from roughly 1.3 to roughly 1.1.

First: chain 1 S132A
Second: chain 1 L104A
The ratio to parent of the first is higher: roughly 1 for the first, roughly 0.67 for the second.

chain 1 E106A and chain 1 S133A are the same in ratio to parent: roughly 1.2 for the first, roughly 1.2 for the second.

First: chain 1 F45A
Second: chain 1 E21A
The ratio to parent of the first is higher: roughly 1.1 for the first, roughly 1 for the second.

Going from chain 1 D183A to chain 1 M70A, the ratio to parent rises from roughly 0.67 to roughly 0.92.

Variants of: B4
Test: as above

Compared with chain 1 F45A, chain 1 K44A is higher in ratio to parent: roughly 0.03 for the first, roughly 0.95 for the second.

Compared with chain 1 S132A, chain 1 L104A is lower in ratio to parent: roughly 1 for the first, roughly 0.02 for the second.

First: chain 1 S133A
Second: chain 1 M70A
The ratio to parent of the first is lower: roughly 0.17 for the first, roughly 1 for the second.

First: chain 1 D183A
Second: chain 1 E21A
The ratio to parent of the first is lower: roughly 0.02 for the first, roughly 0.88 for the second.

First: chain 1 D72A
Second: chain 1 E106A
The ratio to parent of the first is higher: roughly 1.1 for the first, roughly 0.93 for the second.

First: chain 1 Y105A
Second: chain 1 D135A
The ratio to parent of the first is lower: roughly 0.01 for the first, roughly 0.03 for the second.
